This is an account of results in publication PMC8615638, “Tumor Marker B7-H6 Bound to the Coiled Coil Peptide-Polymer Conjugate Enables Targeted Therapy by Activating Human Natural Killer Cells” (Biomedicines, 2021).

To fix the notation:
T1: high-affinity B7-H6 (haB7-H6; S60Y, F82W, L129Y) (UniProt Q68D85 25-245, C212S | S60Y | F82W | L129Y)
T1 construct: same doubt on the C-terminal limit (L245 or T244); also called untagged haB7-H6; source: HEK293T (suspension-adapted), transient transfection, secreted, purified (IMAC, SEC)
T1 sequence (looked up): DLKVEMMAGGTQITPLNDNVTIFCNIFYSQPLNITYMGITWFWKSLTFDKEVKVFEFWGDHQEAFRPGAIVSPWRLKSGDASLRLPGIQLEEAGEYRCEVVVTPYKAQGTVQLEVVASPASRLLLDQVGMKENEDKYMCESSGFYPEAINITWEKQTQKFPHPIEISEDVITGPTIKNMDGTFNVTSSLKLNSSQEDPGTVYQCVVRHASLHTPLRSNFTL

T2: wild-type B7-H6 (extracellular domain of B7-H6 without the coiled coil tag, C212S) (UniProt Q68D85 25-245, C212S)
T2 construct: B7-H6, extracellular domain, residues D25-L245 with stabilizing mutation C212S; cloned as described previously [37]; also called non-modified B7-H6; soluble B7-H6 construct; source: HEK293T (suspension-adapted), transient transfection, secreted, purified (IMAC, SEC)
T2 sequence (looked up): T1 sequence (looked up) with Y36S, W58F, Y105L

T3: high-affinity coiled coil B7-H6 (haB7-H6CC; S60Y, F82W, L129Y) (UniProt Q68D85 25-244, C212S | S60Y | F82W | L129Y)
T3 construct: additional N-terminal residues from the vector, as in B7-H6CC; GT and the (VAALKEK)4 coiled coil motif, as in B7-H6CC; C-terminus -GT(VAALKEK)4H8G; source: HEK293T (suspension-adapted), transient transfection, secreted, purified (IMAC, SEC); not shown: His8 (H8G), C-terminal, kept
T3 sequence: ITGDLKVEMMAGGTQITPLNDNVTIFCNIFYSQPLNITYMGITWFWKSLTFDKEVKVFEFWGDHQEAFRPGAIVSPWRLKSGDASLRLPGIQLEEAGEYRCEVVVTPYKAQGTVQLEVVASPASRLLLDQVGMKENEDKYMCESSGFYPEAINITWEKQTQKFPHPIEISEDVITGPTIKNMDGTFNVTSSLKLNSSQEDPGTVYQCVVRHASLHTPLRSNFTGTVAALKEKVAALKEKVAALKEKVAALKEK

B1: PolCC+: HPMA copolymer of increased length conjugated with (VAALEKE)4 coiled coil peptides (other)
peptide: VAALEKEVAALEKEVAALEKEVAALEKE
modifications: also: attached to HPMA copolymer via copper-free click chemistry, site not given here
notes: (VAALEKE)4 coiled coil peptide, written out from the printed repeat; 130 kDa conjugate with approximately ten coiled coil peptides on each polymer chain (26% w/w); the polymer also carries biotin; Synthesis details are in File S1; source: synthetic peptide attached to HPMA copolymer (RAFT polymerization, copper-free click chemistry); purified by SEC; copies: 10
B2: PolCC: pHPMA copolymer conjugated with (VAALEKE)4 coiled coil peptides (other)
peptide: VAALEKEVAALEKEVAALEKEVAALEKE
modifications: also: attached to pHPMA copolymer via azide-alkyne cycloaddition, site not given here
notes: (VAALEKE)4 coiled coil peptide, written out from the printed repeat; 56 kDa conjugate with approximately eight coiled coil peptides on each polymer chain (40% w/w); the polymer also carries biotin; The polymer itself is no protein; also called coiled coil peptide-polymer conjugate; pHPMA-(VAALEKE)4; source: synthetic peptide attached to HPMA copolymer by click chemistry, as described previously …
B3: NKp30 ligand-binding domain (residues L19-E130, receptor ectodomain without stalk region) (receptor, UniProt O14931 19-130, looked up)
chain: LWVSQPPEIRTLEGSSAFLPCSFNASQGRLAIGSVTWFRDEVVPGKEVRNGTPEFRGRLAPLASSRFLHDHQAELHIRDVRGHDASIYVCRVEVLGLGVGTGNGTRLVVEKE
notes: cloned as described previously [37]; source: HEK293T (suspension-adapted), transient transfection, secreted, purified (IMAC, SEC)
B4: coiled coil B7-H6 (B7-H6CC) (ligand)
chain: T3 sequence with Y39S, W61F, Y108L
notes: additional N-terminal residues from the vector; B7-H6, extracellular domain, residues D25-T244 with stabilizing mutation C212S; GT and the (VAALKEK)4 coiled coil motif (peptide K), written out from -GT(VAALKEK)4H8G; C-terminus is -GT(VAALKEK)4H8G: the His8 is followed by a final G. In the flow cytometry the protein was labelled with AlexaFluor647 by NHS chemistry; Six N-glycosylation sites; also …

In one data set the target is NKp30 (Homo sapiens) (UniProt O14931). As to the kind of experiment: BLI. The settings on record: cited from earlier work.
Data set [1] concerns the target B4. Kind of data set: AUC; sedimentation velocity, PolCC+ titrated with B7-H6CC; 20 °C, 42,000 rpm, 280 nm, SEC buffer. To be noted: both partners purified.
Data set [2] deals with B4. As to the kind of experiment: flow cytometry on cells; PolCC mixed with AlexaFluor647-labelled B7-H6CC and scFvCC (AlexaFluor488-labelled or not); complexes carried to CAIX-expressing cells by scFvCC and B7-H6CC detected on the cells; 45 min on ice, 1 µM polymer. The settings on record: both partners purified. Background: A flow cytometer gives signals particle by particle.

In data set [3] the target is T1, high-affinity B7-H6 (haB7-H6; S60Y, …). As to the kind of experiment: ITC; NKp30 (124-182 µM) injected into a cell with the B7-H6 variant (15.6-25.0 µM); 25 °C; 10 mM HEPES, 150 mM NaCl, 10 mM NaN3, pH 7.5; fitted as A + B <=> AB, N = 1 - incompetent fraction of B7-H6. The settings on record: both partners purified. In general terms: ITC needs no label: the signal is the heat of the interaction.

Data set [4] deals with T2, wild-type B7-H6 (extracellular domain …). The description is as above. To be noted: both partners purified.
Data set [5] has as its target T3, high-affinity coiled coil B7-H6 …. Described as above. The settings on record: both partners purified.
For data set [6], the target named is B4. The data set is described as above. The settings on record: both partners purified.
For data set [7], the target named is B4. As to the kind of experiment: AUC; sedimentation velocity, B7-H6CC titrated with NKp30; 20 °C, 48,000 rpm, 280 nm, SEC buffer; sw isotherm fitted with A + B <=> AB. To be noted: both partners purified.
Data set [8] deals with the molecule itself. Kind of data set: AUC; sedimentation velocity of B7-H6CC alone; 20 °C, 48,000 rpm, absorbance 280 nm, SEC buffer; monomer-dimer equilibrium.

Substitutions are numbered along the chain they refer to. Numbers in names are those of the source. Where “and” joins values, the source holds several entries; their conditions need not be identical. Identical values can stand only once. Where no end group is shown, it is not given here.

B7-H6 IgV domain (from UniProt Q68D85): the Kd in the data set with NKp30 (Homo sapiens) was 409 nM.
On to B1, for which the binding result in [1] was “binds”.
For the molecule B2, the binding result in data set [2] is “binds”.
As for B3, the Kd is 115 nM in [3]; 668 nM in data set [4]; 259 nM in [5]; 787 nM in [6]; 895 nM in data set [7]. Also, the dH in data set [3] was -12.7 kcal/mol; in [4], -11.5 kcal/mol; in data set [5] it was -11.8 kcal/mol; in [6], -11.2 kcal/mol. In addition, the “stoichiometry N” value is 0.91 in data set [3]; 0.88 in data set [4]; 0.65 in data set [5]; 0.74 in [6]; 0.78 and 1 in data set [7].
For the molecule B4, the “stoichiometry N” value in data set [8] came to 2.

As usually defined, the Kd is a measure of binding affinity in units of concentration. What is called stoichiometry N is the number of molecules, sites or subunits per partner or assembly.
